Data as given in patent US20180000964A1 (Genentech, published 2018).
Read-outs that look alike come from different tables or passages of the source.

T1: murine basigin extracellular domain, murine Fc tagged (murine)
T1 construct: also called mBsg ECD; murine basigin (ELISA antigen)
T1 chain: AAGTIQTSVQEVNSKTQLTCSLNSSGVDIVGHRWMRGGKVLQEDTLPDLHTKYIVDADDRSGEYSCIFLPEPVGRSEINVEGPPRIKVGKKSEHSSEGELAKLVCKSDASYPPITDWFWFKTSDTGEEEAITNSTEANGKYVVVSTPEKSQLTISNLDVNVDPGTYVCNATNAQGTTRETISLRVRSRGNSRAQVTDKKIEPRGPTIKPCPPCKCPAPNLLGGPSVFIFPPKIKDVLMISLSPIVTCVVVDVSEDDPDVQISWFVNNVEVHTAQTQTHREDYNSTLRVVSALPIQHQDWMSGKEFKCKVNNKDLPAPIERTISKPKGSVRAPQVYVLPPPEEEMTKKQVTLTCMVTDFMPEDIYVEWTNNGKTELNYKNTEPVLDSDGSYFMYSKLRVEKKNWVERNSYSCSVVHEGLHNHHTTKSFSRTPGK

T2: murine Glut1 (on cells) (murine, UniProt P17809 1-492)
T2 construct: whole, on cells; also called glucose transporter 1; Slc2a1
T2 sequence (looked up): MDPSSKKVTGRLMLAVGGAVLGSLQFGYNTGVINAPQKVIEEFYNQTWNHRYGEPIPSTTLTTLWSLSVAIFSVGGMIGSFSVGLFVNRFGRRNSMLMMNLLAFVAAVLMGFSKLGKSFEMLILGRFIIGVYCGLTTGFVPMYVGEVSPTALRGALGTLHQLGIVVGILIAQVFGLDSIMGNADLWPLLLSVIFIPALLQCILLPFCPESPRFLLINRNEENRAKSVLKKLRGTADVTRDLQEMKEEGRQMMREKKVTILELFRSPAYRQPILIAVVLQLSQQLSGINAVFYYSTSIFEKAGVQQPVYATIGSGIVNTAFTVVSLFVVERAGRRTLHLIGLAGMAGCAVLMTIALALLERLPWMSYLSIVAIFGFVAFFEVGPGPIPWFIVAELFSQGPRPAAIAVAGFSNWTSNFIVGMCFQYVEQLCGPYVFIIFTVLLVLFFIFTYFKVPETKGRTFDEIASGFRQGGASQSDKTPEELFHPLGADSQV


Key:
[1] = target: T1, murine basigin extracellular domain, …; assay: competitive ELISA on coated murine basigin against biotinylated bispecific antibody
Procedure: Nunc 96-well Maxisorp immunoplates were coated overnight at 4° C. with antigen (2 μg/ml) and blocked for 1 hour at room temperature with blocking buffer PBST. Serial dilutions of bivalent or bispecific antibodies were subsequently added to the plates with a sub-saturating concentration of biotinylated bispecific antibody at room temperature for 1 hour. Plates were washed with wash buffer (PBS with 0.05% Tween 20) and incubated for 30 minutes with horseradish peroxidase (HRP)-conjugated streptavidin, and developed with tetramethylbenzidine (TMB) substrate. Absorbance was measured spectrophotometrically at 650 nm.

[2] = target: murine basigin extracellular domain, murine Fc tagged (murine); assay: as above
[3] = target: T1, murine basigin extracellular domain, …; assay: Biacore; 'Binding affinity (nM)'; form of the antigen not stated
murine Glut1 (on cells) = target: T2, murine Glut1 (on cells); assay: flow cytometry (MFI) on HEK293 cells stably expressing Glut1; bivalent (monospecific) anti-Glut1, not the bispecific anti-Glut1/BACE1
Procedure: Purified antibodies were screened on 293 cells transfected with the corresponding antigens. Cells were collected from flasks/dishes, washed with phosphate-buffered saline (PBS), and added to 96-well U-bottom plates (BD Falcon 353077, BD, Franklin Lakes, N.J.) at 1,000,000 cells per well. Samples were added to cells (100 μL/well) and incubated at 4° C. for 30-60 minutes. Plates were then centrifuged (1200 rpm, 5 minutes, 4° C.) and washed twice with PBS/1% FBS (200 μl per well). R-Phycoerythrin-conjugated Ziege anti-human IgG Fc (Jackson ImmunoReseach Laboratories Inc. (West Grove, Pa.); 109-116-098; 100 μl diluted in PBS) was then added and the plates incubated at 4° C. (covered) for 30 minutes. After the final wash, the cells were fixed in PBS containing 1% formalin, and read using a FACSCalibur™ flow cytometer (BD Biosciences, San Jose, Calif.). Mean fluorescence intensity (MFI) of each sample was then measured using the FlowJo software (Treestar, Inc., Ashland, Oreg.).

Row | IC50 [1] [nM] | IC50 [2] [nM] | Kd [3] [nM] | EC50 (murine Glut1 (on cells)) [µg/mL] | Binder
1 | 7.1 | 106 | 13.5 | – | anti-Bsg^A (antibody, V domains shown, also called bivalent (monospecific) anti-Bsg^A) VH: EVQLVESGGGLVLPGRSMKLSCAASGFTFRTYYMAWVRQAPTKGLEWVASISIGGDNTYYRDSVMGRFTISRDDAKSTLHLQMDNLRSEDTATYYCVRLRGYFDYWGQGVMVTVSS VL: EIVLTQSPATMPASPGEKVTLTCRASSSIRYIYWYQQKSGTSPKLWIYDTSKLASGVPNRFSGSGSGTSYSLTISSMETEDTATYYCQQGRSYPLTFGSGTKLEIK
2 | 17.5 | 127 | 102 | – | anti-Bsg^B (antibody, V domains shown, also called bivalent (monospecific) anti-Bsg^B) VH: EVQLVESGGGLVQPGRSLKLSCVASGFTFNNYWMTWIRQAPGKGLEWFASITNTGGSTYYPDSVKGRFTISRDNAQSTLYLQTNSLRPEDTATYYCARRDGSYYPYYWYFDLWGPGTTVTVSS VL: NTVMTQSPTSMFISVGDRVTMNCKASRSVGTNVDWYQQKTGQSPTLLFYGASNRYIGVPDRFTGSGSGTDFTLTISNMQAEDLAVYYCLQYNYNWAFGGGTKLELK
3 | – | – | – | 0.6 | anti-Glut1 antibody (antibody, V domains shown, Raised by DNA immunization with hGlut1 cDNA; also called bivalent (monospecific) anti-Glut1) VH: QVQLQQPGSVLVRPGASVKLSCKASGYTFTGSWLHWAKQRPGQGLEWIGEIHPYSGNTNYNERFKGKATLTVDTPSSTAYVDLRSLTFEDSAVYYCAKEGGWFLRIYGMDYWGQGTSVTVSS VL: DIVLTQSPSSLSASLGDTITITCHASQNINVWLSWYQQKPGNIPKLLIYKASNLHSGVPSRFSGSGSGTGFTLTISSLQPEDIATYYCQQGQTFPYTFGGGTRLEIK
